Source: patent US20050142568

Assays:
[1] = molecular target: T1, ^35S-Methionine labeled CRN-1, Q9N3T2
T1 chain: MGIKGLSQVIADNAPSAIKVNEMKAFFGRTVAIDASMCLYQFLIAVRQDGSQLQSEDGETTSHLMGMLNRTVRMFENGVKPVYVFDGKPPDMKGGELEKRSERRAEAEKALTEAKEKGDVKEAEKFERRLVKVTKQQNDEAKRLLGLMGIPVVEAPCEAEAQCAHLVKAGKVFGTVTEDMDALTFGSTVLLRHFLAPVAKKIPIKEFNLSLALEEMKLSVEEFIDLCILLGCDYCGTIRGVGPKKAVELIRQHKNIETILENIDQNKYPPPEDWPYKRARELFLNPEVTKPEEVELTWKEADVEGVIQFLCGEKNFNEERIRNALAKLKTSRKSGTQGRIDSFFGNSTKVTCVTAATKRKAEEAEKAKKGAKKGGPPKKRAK

His6CPS-6, Q95NM6 = molecular target: T2, His6CPS-6, Q95NM6
T2 chain: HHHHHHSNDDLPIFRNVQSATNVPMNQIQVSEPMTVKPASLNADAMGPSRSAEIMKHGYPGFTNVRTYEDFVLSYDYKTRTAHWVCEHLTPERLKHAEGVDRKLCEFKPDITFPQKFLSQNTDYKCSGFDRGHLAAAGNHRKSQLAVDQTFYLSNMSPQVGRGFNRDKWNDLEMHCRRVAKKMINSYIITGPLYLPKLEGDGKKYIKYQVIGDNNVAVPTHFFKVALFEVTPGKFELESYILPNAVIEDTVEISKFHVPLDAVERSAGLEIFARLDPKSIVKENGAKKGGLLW

B1: full-length ^35S-methionine labeled CPS-6 (protein)
chain: MIGKVAGTAAIAGISFLAGKYSNDDLPIFRNVQSATNVPMNQIQVSEPMTVKPASLNADAMGPSRSAEIMKHGYPGFTNVRTYEDFVLSYDYKTRTAHWVCEHLTPERLKHAEGVDRKLCEFKPDITFPQKFLSQNTDYKCSGFDRGHLAAAGNHRKSQLAVDQTFYLSNMSPQVGRGFNRDKWNDLEMHCRRVAKKMINSYIITGPLYLPKLEGDGKKYIKYQVIGDNNVAVPTHFFKVALFEVTPGKFELESYILPNAVIEDTVEISKFHVPLDAVERSAGLEIFARLDPKSIVKENGAKKGGLLW
[1]
  gap-dependent endonuclease activity of CRN-1: it enhanced the gap-dependent endonuclease activity of CRN-1 by more than 200%

B2: CRN-1-His6 (protein)
chain: MGIKGLSQVIADNAPSAIKVNEMKAFFGRTVAIDASMCLYQFLIAVRQDGSQLQSEDGETTSHLMGMLNRTVRMFENGVKPVYVFDGKPPDMKGGELEKRSERRAEAEKALTEAKEKGDVKEAEKFERRLVKVTKQQNDEAKRLLGLMGIPVVEAPCEAEAQCAHLVKAGKVFGTVTEDMDALTFGSTVLLRHFLAPVAKKIPIKEFNLSLALEEMKLSVEEFIDLCILLGCDYCGTIRGVGPKKAVELIRQHKNIETILENIDQNKYPPPEDWPYKRARELFLNPEVTKPEEVELTWKEADVEGVIQFLCGEKNFNEERIRNALAKLKTSRKSGTQGRIDSFFGNSTKVTCVTAATKRKAEEAEKAKKGAKKGGPPKKRAKHHHHHH
His6CPS-6, Q95NM6
  nuclease activity (plasmid cleavage assay): complete plasmid degradation and approximately 500% increase in nuclease activity

B3: CRN-1(DY-AA) (protein)
chain: MGIKGLSQVIADNAPSAIKVNEMKAFFGRTVAIDASMCLYQFLIAVRQDGSQLQSEDGETTSHLMGMLNRTVRMFENGVKPVYVFDGKPPDMKGGELEKRSERRAEAEKALTEAKEKGDVKEAEKFERRLVKVTKQQNDEAKRLLGLMGIPVVEAPCEAEAQCAHLVKAGKVFGTVTEDMDALTFGSTVLLRHFLAPVAKKIPIKEFNLSLALEEMKLSVEEFIDLCILLGCAACGTIRGVGPKKAVELIRQHKNIETILENIDQNKYPPPEDWPYKRARELFLNPEVTKPEEVELTWKEADVEGVIQFLCGEKNFNEERIRNALAKLKTSRKSGTQGRIDSFFGNSTKVTCVTAATKRKAEEAEKAKKGAKKGGPPKKRAK
His6CPS-6, Q95NM6
  CPS-6 nuclease activity (plasmid cleavage assay): continuing enhancement of CPS-6 nuclease activity, though less potently than the wild type CRN-1 protein
